In PMC5437702 one finds A/I ratio (affinity for activatory FcγRIII against inhibitory FcγRIIb) data, which are given here for one substance.

In this assay the target is activatory Fc gamma receptor III (FcγRIII), mouse (mouse) (UniProt P08508). The assay is described as follows: SPR. (In SPR one partner is held on a chip, and binding of the other changes the refractive index at the surface.)

Where only a bound is given, the exact number is not on record here.

Sequence of UniProt P08508 (P08508 31-261): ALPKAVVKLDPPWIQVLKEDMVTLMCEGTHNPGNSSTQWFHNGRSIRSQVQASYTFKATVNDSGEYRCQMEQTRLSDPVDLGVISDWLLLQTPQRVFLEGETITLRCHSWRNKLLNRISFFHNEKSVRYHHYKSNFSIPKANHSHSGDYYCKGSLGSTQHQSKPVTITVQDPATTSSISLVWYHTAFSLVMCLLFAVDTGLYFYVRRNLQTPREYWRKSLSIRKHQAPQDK

As to “anti-CD25 clone PC-61 rat IgG1 (αCD25-r1) (antibody)”, the A/I ratio (affinity for activatory FcγRIII against inhibitory FcγRIIb) is under 1.
